# Results taken from patent US20210388087A1 (Chugai, published 2021).
# Positions count from the first letter of the chain named. Names may count otherwise.
# B1: H183/L072 VH W33Y (antibody, name in Kabat numbering, V domains shown)
# VH: QVQLVESGGGLVQPGRSLRLSCAASGFTFSNAYMHWVRQAPGKGLEWVAQIKDKGNAYAAYYAPSVKGRFTISRDDSKNSIYLQMNSLKTEDTAVYYCHYVHYASASTVLPAFGVDAWGQGTTVTVSS
# VL: DIVMTQSPLSLPVTPGEPASISCQASQELVHMNRNTYLHWYQQKPGQAPRLLIYKVSNRFPGVPDRFSGSGSGTDFTLKISRVEAEDVGVYYCAQGTSVPFTFGQGTKLEIK
# B2: H183/L072 VH Y55A (antibody, name in Kabat numbering, V domains shown)
# VH: B1 VH with Y33W, Y58A
# VL: B1 VL
# B3: H183/L072 VH Y55D (antibody, name in Kabat numbering, V domains shown)
# VH: B1 VH with Y33W, Y58D
# VL: B1 VL
# B4: H183/L072 VH Y55E (antibody, name in Kabat numbering, V domains shown)
# VH: B1 VH with Y33W, Y58E
# VL: B1 VL
# B5: H183/L072 VH Y55F (antibody, name in Kabat numbering, V domains shown)
# VH: B1 VH with Y33W, Y58F
# VL: B1 VL
# B6: H183/L072 VH Y55G (antibody, name in Kabat numbering, V domains shown)
# VH: B1 VH with Y33W, Y58G
# VL: B1 VL
# B7: H183/L072 VH Y55H (antibody, name in Kabat numbering, V domains shown)
# VH: B1 VH with Y33W, Y58H
# VL: B1 VL
# B8: H183/L072 VH Y55K (antibody, name in Kabat numbering, V domains shown)
# VH: B1 VH with Y33W, Y58K
# VL: B1 VL
# B9: H183/L072 VH Y55L (antibody, name in Kabat numbering, V domains shown)
# VH: B1 VH with Y33W, Y58L
# VL: B1 VL
# B10: H183/L072 VH Y55M (antibody, name in Kabat numbering, V domains shown)
# VH: B1 VH with Y33W, Y58M
# VL: B1 VL
# B11: H183/L072 VH Y55N (antibody, name in Kabat numbering, V domains shown)
# VH: B1 VH with Y33W, Y58N
# VL: B1 VL
# B12: H183/L072 VH Y55Q (antibody, name in Kabat numbering, V domains shown)
# VH: B1 VH with Y33W, Y58Q
# VL: B1 VL
# B13: H183/L072 VH Y58A (antibody, name in Kabat numbering, V domains shown)
# VH: B1 VH with Y33W, Y61A
# VL: B1 VL
# B14: H183/L072 VH Y58D (antibody, name in Kabat numbering, V domains shown)
# VH: B1 VH with Y33W, Y61D
# VL: B1 VL
# B15: H183/L072 VH Y58E (antibody, name in Kabat numbering, V domains shown)
# VH: B1 VH with Y33W, Y61E
# VL: B1 VL
# B16: H183/L072 VH Y58F (antibody, name in Kabat numbering, V domains shown)
# VH: B1 VH with Y33W, Y61F
# VL: B1 VL
# B17: H183/L072 VH Y58G (antibody, name in Kabat numbering, V domains shown)
# VH: B1 VH with Y33W, Y61G
# VL: B1 VL
# B18: H183/L072 VH Y58H (antibody, name in Kabat numbering, V domains shown)
# VH: B1 VH with Y33W, Y61H
# VL: B1 VL
# Target: T1, Human CD137 ECD (human)
# T1 construct: also called 4-1BB
# Assay: single mutant vs template dBBDu183H
# T1 sequence (chain, as listed by the source limits assumed): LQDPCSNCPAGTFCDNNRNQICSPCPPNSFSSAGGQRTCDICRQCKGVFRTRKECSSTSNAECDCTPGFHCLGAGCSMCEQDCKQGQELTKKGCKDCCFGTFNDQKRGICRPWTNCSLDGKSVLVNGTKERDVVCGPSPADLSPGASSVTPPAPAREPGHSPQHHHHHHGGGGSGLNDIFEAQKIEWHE
row,Binder,fold change of affinity
1,B1,0 fold
2,B2,0.3 fold
3,B3,0.4 fold
4,B4,0.4 fold
5,B5,0.5 fold
6,B6,0.3 fold
7,B7,0.4 fold
8,B8,0.2 fold
9,B9,0.3 fold
10,B10,0.4 fold
11,B11,0.7 fold
12,B12,0.2 fold
13,B13,0.2 fold
14,B14,0.1 fold
15,B15,0.3 fold
16,B16,0.9 fold
17,B17,0.2 fold
18,B18,0.3 fold
